# T1: 9°N-7 YAV C223S exo- R743A (Thermococcus sp. 9°N-7) (UniProt Q56366)
# T1 sequence: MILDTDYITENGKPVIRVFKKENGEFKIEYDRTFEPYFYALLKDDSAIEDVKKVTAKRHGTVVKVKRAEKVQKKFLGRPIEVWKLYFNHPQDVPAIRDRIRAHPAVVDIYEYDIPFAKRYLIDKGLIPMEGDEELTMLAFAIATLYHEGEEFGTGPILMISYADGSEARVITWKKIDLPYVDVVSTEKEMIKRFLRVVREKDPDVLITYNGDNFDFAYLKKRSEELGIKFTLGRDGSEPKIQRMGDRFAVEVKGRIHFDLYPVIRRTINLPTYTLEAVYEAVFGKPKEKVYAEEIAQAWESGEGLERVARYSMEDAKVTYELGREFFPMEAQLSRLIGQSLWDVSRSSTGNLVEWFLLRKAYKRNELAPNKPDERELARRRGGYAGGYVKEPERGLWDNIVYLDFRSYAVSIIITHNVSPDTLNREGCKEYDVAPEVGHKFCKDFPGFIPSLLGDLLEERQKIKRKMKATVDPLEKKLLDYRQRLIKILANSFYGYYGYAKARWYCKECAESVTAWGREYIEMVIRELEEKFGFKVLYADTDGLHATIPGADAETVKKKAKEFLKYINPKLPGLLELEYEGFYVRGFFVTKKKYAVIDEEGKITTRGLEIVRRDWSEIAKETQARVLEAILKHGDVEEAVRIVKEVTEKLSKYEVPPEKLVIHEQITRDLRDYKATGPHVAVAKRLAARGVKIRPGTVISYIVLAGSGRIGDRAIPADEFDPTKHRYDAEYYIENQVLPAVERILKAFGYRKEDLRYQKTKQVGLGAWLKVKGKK
# T2: 9°N-7 YAV C223S exo- R713A (Thermococcus sp. 9°N-7) (UniProt Q56366)
# T2 sequence: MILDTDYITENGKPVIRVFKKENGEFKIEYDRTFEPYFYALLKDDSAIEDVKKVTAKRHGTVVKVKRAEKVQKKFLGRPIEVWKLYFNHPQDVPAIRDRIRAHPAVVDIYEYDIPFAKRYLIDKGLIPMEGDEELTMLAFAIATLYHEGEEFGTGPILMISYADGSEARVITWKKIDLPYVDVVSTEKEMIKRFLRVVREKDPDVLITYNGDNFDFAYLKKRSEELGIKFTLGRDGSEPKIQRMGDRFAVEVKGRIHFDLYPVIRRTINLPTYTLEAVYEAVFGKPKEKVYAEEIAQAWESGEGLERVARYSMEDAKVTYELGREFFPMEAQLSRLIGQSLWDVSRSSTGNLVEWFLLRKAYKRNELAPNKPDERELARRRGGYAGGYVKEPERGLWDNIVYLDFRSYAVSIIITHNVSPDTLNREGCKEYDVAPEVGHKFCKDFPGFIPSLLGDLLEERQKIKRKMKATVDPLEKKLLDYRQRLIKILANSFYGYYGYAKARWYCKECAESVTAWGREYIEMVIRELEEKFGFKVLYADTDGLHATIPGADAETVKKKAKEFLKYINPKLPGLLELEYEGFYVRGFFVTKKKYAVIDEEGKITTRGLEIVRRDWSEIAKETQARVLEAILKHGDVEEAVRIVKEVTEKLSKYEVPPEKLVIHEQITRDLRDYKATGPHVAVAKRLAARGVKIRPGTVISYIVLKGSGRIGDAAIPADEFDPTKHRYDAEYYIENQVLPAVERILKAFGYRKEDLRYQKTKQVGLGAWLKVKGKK
# T3: 9°N-7 DNA polymerase YAV C223S exo- (clone 9) C223S,L408Y,Y409A,P410V (Thermococcus sp. 9°N-7) (UniProt Q56366)
# T3 sequence: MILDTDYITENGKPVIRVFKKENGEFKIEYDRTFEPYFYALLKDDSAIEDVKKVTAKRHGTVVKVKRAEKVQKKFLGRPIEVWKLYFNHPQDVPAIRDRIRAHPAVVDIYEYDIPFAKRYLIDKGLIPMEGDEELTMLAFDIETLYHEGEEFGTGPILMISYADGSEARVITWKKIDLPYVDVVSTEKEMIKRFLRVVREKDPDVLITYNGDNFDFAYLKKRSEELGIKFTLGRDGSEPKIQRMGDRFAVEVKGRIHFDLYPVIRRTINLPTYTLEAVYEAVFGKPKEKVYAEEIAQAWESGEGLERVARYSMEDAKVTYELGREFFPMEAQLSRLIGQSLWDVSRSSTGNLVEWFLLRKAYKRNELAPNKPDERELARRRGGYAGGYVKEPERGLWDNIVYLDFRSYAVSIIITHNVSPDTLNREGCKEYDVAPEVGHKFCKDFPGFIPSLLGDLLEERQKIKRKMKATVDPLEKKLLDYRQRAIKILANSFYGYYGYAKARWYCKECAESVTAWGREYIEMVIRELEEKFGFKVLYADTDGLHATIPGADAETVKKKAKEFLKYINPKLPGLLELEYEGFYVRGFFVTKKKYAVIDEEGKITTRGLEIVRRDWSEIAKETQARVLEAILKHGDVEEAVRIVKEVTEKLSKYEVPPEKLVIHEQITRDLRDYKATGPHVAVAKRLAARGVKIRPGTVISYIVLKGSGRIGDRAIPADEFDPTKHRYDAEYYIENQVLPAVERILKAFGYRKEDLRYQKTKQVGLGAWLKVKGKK
# T4: 9°N-7 YAV C223S exo- K705A (Thermococcus sp. 9°N-7, UniProt Q56366 SEQ:1-775)
# T4 chain: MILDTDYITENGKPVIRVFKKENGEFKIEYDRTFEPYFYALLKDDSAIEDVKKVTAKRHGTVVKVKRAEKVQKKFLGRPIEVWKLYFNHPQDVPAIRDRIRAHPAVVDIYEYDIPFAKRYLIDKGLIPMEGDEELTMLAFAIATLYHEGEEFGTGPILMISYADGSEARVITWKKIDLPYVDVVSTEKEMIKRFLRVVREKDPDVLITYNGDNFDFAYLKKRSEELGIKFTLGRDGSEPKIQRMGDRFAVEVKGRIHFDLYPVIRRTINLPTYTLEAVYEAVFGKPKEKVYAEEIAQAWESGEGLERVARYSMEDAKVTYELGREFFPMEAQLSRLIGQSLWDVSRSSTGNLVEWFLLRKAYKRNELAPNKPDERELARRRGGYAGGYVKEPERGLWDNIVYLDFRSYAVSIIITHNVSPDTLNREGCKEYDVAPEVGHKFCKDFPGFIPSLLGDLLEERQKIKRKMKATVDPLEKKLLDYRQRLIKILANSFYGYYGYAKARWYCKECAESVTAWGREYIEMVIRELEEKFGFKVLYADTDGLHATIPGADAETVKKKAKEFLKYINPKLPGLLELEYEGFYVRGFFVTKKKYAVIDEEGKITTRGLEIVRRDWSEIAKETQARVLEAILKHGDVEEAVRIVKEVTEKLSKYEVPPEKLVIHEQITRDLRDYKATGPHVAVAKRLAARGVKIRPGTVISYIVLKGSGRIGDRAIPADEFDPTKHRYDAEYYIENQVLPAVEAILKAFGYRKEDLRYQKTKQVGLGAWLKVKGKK
# T5: 9°N-7 YAV C223S exo- 71 deletion (C-terminus 704) (Thermococcus sp. 9°N-7) (UniProt Q56366)
# T5 sequence: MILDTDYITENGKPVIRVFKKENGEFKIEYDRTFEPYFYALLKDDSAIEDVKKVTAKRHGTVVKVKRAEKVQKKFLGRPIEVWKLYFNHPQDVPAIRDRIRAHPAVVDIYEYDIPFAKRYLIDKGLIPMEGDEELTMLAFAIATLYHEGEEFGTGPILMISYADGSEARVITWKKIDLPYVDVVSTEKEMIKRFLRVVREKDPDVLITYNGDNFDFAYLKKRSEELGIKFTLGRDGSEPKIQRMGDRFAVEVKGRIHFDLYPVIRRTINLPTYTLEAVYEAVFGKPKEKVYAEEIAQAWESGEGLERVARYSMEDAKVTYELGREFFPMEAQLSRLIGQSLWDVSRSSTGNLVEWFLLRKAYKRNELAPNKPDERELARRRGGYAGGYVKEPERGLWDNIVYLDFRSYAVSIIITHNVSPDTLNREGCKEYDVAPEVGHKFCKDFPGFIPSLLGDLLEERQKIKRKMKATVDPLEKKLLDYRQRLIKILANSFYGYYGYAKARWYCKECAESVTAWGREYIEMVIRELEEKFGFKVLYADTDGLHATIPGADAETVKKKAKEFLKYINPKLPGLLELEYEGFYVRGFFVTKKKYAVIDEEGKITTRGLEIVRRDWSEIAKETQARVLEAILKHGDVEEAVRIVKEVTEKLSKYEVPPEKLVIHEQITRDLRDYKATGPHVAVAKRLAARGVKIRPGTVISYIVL
# B1: A-template hairpin oligo 815 (structured_DNA)
# DNA: CGATCACGATCACGATCACGATCACGATCACGATCACGCTGATGTGCATGCTGTTGTTTTTTTACAACAGCATGCACATCAGCG
# modifications: 5'-amino, surface coupled
# How the values were obtained:
# [1] = target: T1, 9°N-7 YAV C223S exo- R743A (Thermococcus sp. 9°N-7); conditions: kobs, DNA:pol 5:1; single exponential, amplitude ~90%
# [2] = target: T2, 9°N-7 YAV C223S exo- R713A (Thermococcus sp. 9°N-7); conditions: kobs, DNA:pol 5:1; single exponential, amplitude ~90%
# [3] = target: T3, 9°N-7 DNA polymerase YAV C223S exo- (clone 9) C223S,L408Y,Y409A,P410V (Thermococcus sp. 9°N-7); conditions: burst kobs, DNA:pol 5:1; biphasic, burst amplitude 19%
# [4] = target: T4, 9°N-7 YAV C223S exo- K705A; conditions: burst kobs, DNA:pol 5:1; biphasic, burst amplitude ~28%
# [5] = target: T5, 9°N-7 YAV C223S exo- 71 deletion (C-terminus 704) (Thermococcus sp. 9°N-7); conditions: crude enzyme; kobs relative to YAV, essentially inactive
# [6] = target: T4, 9°N-7 YAV C223S exo- K705A; assay: washing assay; similar response to clone 9; conditions: hairpin with 5' overhang
# Experimental: Once washed, each well was incubated with a 20 μl aliquot of 500 nM enzyme (clone 9, K705A, R713A or R743A mutants) at 45° C. for 30 minutes. Post incubation, each well was washed with […] 10 mM Tris pH 8.0, 10 mM EDTA including varying concentrations of NaCl (0, 0.05, 0.1, 0.3, 0.4, 0.75, 1.0, 2.0 M) and then […] MilliQ water. Wells were subsequently pre-equilibrated with enzymology buffer prior to a further incubation of 20 μl of 2 μM ffT-N3-647 at 45° C. for 30 minutes. Wells were washed with 3×100 ml high salt wash buffer (10 mM Tris pH 8.0, 1M NaCl, 10 mM EDTA) and then 3×100 ml MilliQ water. Strips scanned on Typhoon fluorescence imager (y5 filter, PMT=500 V).
Molecule,activity [1],activity [2],activity [3],activity [4],relative kobs (% of YAV) [5],binding result [6]
10 A hairpin DNA,0.004 s⁻¹,0.01 s⁻¹,0.06 s⁻¹,0.06 s⁻¹,21%,
B1,,,,,,binds

# — patent US20060281109, “Polymerases” (published 2006)
